We go through two sequences from patent publication US20180291343.

The test system of data set [1] is TALEN Beta2M T01 LEFT (artificial). Nature of the data set: cell_activity. As to conditions: primary T cells, 10 ug TALEN mRNA as pair with right monomer, 3 days post electroporation; 38% at 2 ug; untransfected nearly 100% positive.
Data set [2] concerns TALEN Beta2M T01 RIGHT (artificial). Put plainly: cell_activity. Conditions: primary T cells, 10 ug TALEN mRNA as pair with left monomer, 3 days post electroporation; 38% at 2 ug; untransfected nearly 100% positive.

In data set [1], “TGGCCTTAGCTGTGCTC (double strand) [B2M T01 target, left half-site]” yielded an activity (% beta2-m negative cells) of 80. “TTCTGGCCTGGAGGCTA (double strand) [B2M T01 target, right half-site]” registered an activity (% beta2-m negative cells) in data set [2] of 80.
